# Test results published in EP4631972A1, “SITE-SPECIFIC COUPLED PEGYLATED INTERLEUKIN-2 MUTANT WITH RECEPTOR AFFINITY PREFERENCE AND USE THEREOF” (priority 2022, dated 2024).
# B1: 80K-1PEG-IL2-N88R-N77C: IL-2 mutant N88R, N77C, conjugation site 77, PEG molecular weight 80kD (conjugate)
# chain: APTSSSTKKTQLQLEHLLLDLQMILNGINNYKNPKLTRMLTFKFYMPKKATELKHLQCLEEELKPLEEVLNLAQSKC(PEG 80 kDa)FHLRPRDLISRINVIVLELKGSETTFMCEYADETATIVEFLNRWITFSQSIISTLT
# Key:
# Treg cells [1] = assay: P-STAT5 activation in Treg cells of human PBMCs (flow cytometry); format: cell-based; conditions: P-STAT5 MFI in CD3+/CD4+/CD25+ cells of human PBMCs, 30 min stimulation
# Protocol: In the example, the activation effect of each mutant prepared in Example 6 on P-STAT5 in different cell subsets (Tregs, CD8+T cells, NK cells) from human PBMCs (Miaoshun Biotechnology) was detected.
# Human PBMC cells were thawed and resuspended to 1.5×10^6 cells/ml in RPMI1640 medium containing 10% FBS. 100 µl was added to each well of a V-bottom 96-well culture plate. Each IL-2 mutant prepared in Example 6 was diluted 10-fold in series: 1000 nM was used as the working concentration for the first well, and then 100 µl/well of each serial dilution was added to each cultured cell, stimulated at 37°C for 30 min, and the reaction was terminated on ice. The cells were treated with a commercial fixative and permeabilization agent (BD biosciences 558049 & 558050), and stained with antibodies against CD3, CD4, CD25, and CD8 according to conventional methods. P-STAT5 antibody staining was also performed (Table 7) to detect the mean fluorescence intensity (MFI) of P-STAT5 in CD3+/CD4+/CD25+ (Treg cells) and CD8+/CD3+ cells ([…]) by flow cytometry.
# Treg cells [2] = assay: Pharmacodynamic study in cynomolgus monkeys, peripheral Treg cells; format: in vivo; conditions: doses ≤400 µg/kg
# Source text: For information on administration and grouping, see Table 14.
# [3] = Pharmacokinetic study in cynomolgus monkeys; conditions: cynomolgus monkey
# Protocol: Blood was collected before and after administration (4h, 8h, 24h, 48h, 72h, 120h, 168h, 240h, 336h) in the first cycle and after administration (8h, 24h, 48h, 72h, 120h, 168h, 240h) in the second cycle to detect plasma drug concentration.
# [4] = female, first-cycle dosing 50 µg/kg s.c.
# [5] = female, second-cycle dosing 400 µg/kg s.c.
# [6] = male, first-cycle dosing 50 µg/kg s.c.
# [7] = male, second-cycle dosing 400 µg/kg s.c.
molecule,measurement,setting,value
B1,EC50,Treg cells [1],29.8 nM
same,activation and proliferation of peripheral blood Treg cells,Treg cells [2],clear activation and proliferation
same,AUC inf,[3]; [4],186.0556 µg·h/mL
same,AUClast,[3]; [4],147.9248 µg·h/mL
same,CL,[3]; [4],0.27
same,Cmax,[3]; [4],902.5692 ng/mL
same,MRT,[3]; [4],122.9092 h
same,Tmax,[3]; [4],8 h
same,AUC inf,[3]; [5],2286.053 µg·h/mL
same,AUClast,[3]; [5],1481.823 µg·h/mL
same,CL,[3]; [5],0.17
same,Cmax,[3]; [5],8785.158 ng/mL
same,MRT,[3]; [5],103.1 h
same,Tmax,[3]; [5],8 h
same,AUC inf,[3]; [6],278.1948 µg·h/mL
same,AUClast,[3]; [6],184.7575 µg·h/mL
same,CL,[3]; [6],0.18
same,Cmax,[3]; [6],824.4732 ng/mL
same,MRT,[3]; [6],142.9087 h
same,Tmax,[3]; [6],48 h
same,AUC inf,[3]; [7],2635.62 µg·h/mL
same,AUClast,[3]; [7],1885.448 µg·h/mL
same,CL,[3]; [7],0.15
same,Cmax,[3]; [7],11432.93 ng/mL
same,MRT,[3]; [7],102.1 h
same,Tmax,[3]; [7],48 h
